# In patent US20190032056, “STEM-LOOP COMPOSITIONS AND METHODS FOR INHIBITING FACTOR D” (Vitrisa Therapeutics, Inc., published 2019):
# B1: Aptamer 109 (ssRNA)
# RNA: GGCCUUGCCCGUAUUGGCGAUGGCGGGAAGUUUGGCC
# modifications: 2'-F G except 2'-OMe G in stem 1; 2'-OMe A,C,U; 5' C6NH2; 3' idT
# B2: Aptamer 104 (ssRNA)
# RNA: CGCCUUGCCAGUAUUGGCUUAGGCUGGAAGUUUGGCG
# modifications: 2'-F G except 2'-OMe G in stem 1; 2'-OMe A,C,U; 5' C6NH2; 3' idT
# B3: Aptamer 107 (ssRNA)
# RNA: CGACUUGCCAGUAUUGGCUUAGGCUGGAAGUUUGUCG
# modifications: 2'-F G except 2'-OMe G in stem 1; 2'-OMe A,C,U; 5' C6NH2; 3' idT
# B4: Aptamer 99 (ssRNA)
# RNA: CGCCUUGCCAGUAUUGGCGAUGGCUGGAAGUUUGGCG
# modifications: 2'-F G except 2'-OMe G in stem 1; 2'-OMe A,C,U; 5' C6NH2; 3' idT
# B5: Aptamer 116 (ssRNA)
# RNA: CCGCCUUGCCAGUAUUGGCGAUGGCUGGAAGUUUGGCGG
# modifications: 2'-F G except 2'-OMe G in stem 1; 2'-OMe A,C,U; 5' C6NH2; 3' idT
# B6: Aptamer 108 (ssRNA)
# RNA: GCCUUGCGGGUAUUGGCGAUGGCCCGAAGUUUGGC
# modifications: 2'-F G except 2'-OMe G in stem 1; 2'-OMe A,C,U; 5' C6NH2; 3' idT
# B7: C3 (ssRNA)
# RNA: GGGAGUGUGUACGAGGCAUUAGGCCGCCACCUCGUUUGAUUGCGGUUGUUCGGCCGCGGGCGGCUUUGAUACUUGAUCGCCCUAGAAGC
# modifications: 2'-F G; 2'-OMe A, C, U
# B8: C1 (ssRNA)
# RNA: GGGAGUGUGUACGAGGCAUUAGGCCGCCACCCAAACUGCAGUCCUCGUAAGUCUGCCUGGCGGCUUUGAUACUUGAUCGCCCUAGAAGC
# modifications: 2'-F G; 2'-OMe A, C, U
# B9: C2 (ssRNA)
# RNA: GGGAGUGUGUACGAGGCAUUAGUCCGCCGAAGUCUUUUGGCUCGGUUUUUUCAAGGUCGGCGGCUUUGAUACUUGAUCGCCCUAGAAGC
# modifications: 2'-F G; 2'-OMe A, C, U
# B10: P04 (PEGylated Aptamer 74) (ssRNA)
# RNA: CCGCCUUGCCAGUAUUGGCUUAGGCUGGAAGUUUGGCGG
# modifications: as Aptamer 74 (2'-OMe G at 3,35,36,38,39; other G 2'-F; 2'-OMe A,C,U); 5' 40 kDa branched PEG via C6NH2; 3' idT
# B11: Aptamer 1723 (ssRNA)
# RNA: CCGCCUUGCCAGUAUUGGCUUAGGCUGGAAGUUUGGCGG
# modifications: 2'-F G except 2'-OMe G at 3,12,24,27,28,35,36,38,39; 2'-OMe A,C,U; 5' C6SH; 3' idT
# B12: Aptamer 1721 (ssRNA)
# RNA: CCGCCUUGCCAGUAUUGGCUUAGGCUGGAAGUUUGGCGG
# modifications: 2'-F G except 2'-OMe G at 3,12,27,35,36,38,39; 2'-OMe A,C,U; 5' C6SH; 3' idT
# B13: Aptamer 1722 (ssRNA)
# RNA: CCGCCUUGCCAGUAUUGGCUUAGGCUGGAAGUUUGGCGG
# modifications: 2'-F G except 2'-OMe G at 3,12,27,28,35,36,38,39; 2'-OMe A,C,U; 5' C6SH; 3' idT
# B14: Aptamer 98 (ssRNA)
# RNA: GGCCUUGCCCGUAUUGGCGAUGGCGGGAAGUUUGGCC
# modifications: 2'-F G; 2'-OMe A,C,U; 5' C6NH2; 3' idT
# B15: Aptamer 16 (ssRNA)
# RNA: CGCCUUGCCAGUAUUGGCUUAGGCUGGAAGUUUGGCG
# modifications: 2'-F G; 2'-OMe A,C,U; 5' C6NH2; 3' idT
# B16: Aptamer 92 (ssRNA)
# RNA: GCCUUGCGGGUAUUGGCGAUGGCCCGAAGUUUGGC
# modifications: 2'-F G; 2'-OMe A,C,U; 5' C6NH2; 3' idT
# B17: Aptamer 93 (ssRNA)
# RNA: GCCUUGAGGGUAUUGGCGAUGGCCCUAAGUUUGGC
# modifications: 2'-F G; 2'-OMe A,C,U; 5' C6NH2; 3' idT
# B18: Aptamer 60 (ssRNA)
# RNA: CGCCUUGCCAGUAUUGGCGAUGGCUGGAAGUUUGGCG
# modifications: 2'-F G; 2'-OMe A,C,U; 5' C6NH2; 3' idT
# B19: Aptamer 34 (ssRNA)
# RNA: CAGCCGUGCUAGUAUUGGCAUUGGCUAGAAGUUAGGCUG
# modifications: 2'-F G; 2'-OMe A,C,U; 5' C6NH2; 3' idT
# B20: Aptamer 38 (ssRNA)
# RNA: CUGCCUUGCGGGUAUUGGCGUUGGCCCGAAGUUUGGCUG
# modifications: 2'-F G; 2'-OMe A,C,U; 5' C6NH2; 3' idT
# B21: Aptamer 57 (ssRNA)
# RNA: CUGCCUUGCGGGUAUUGGCGAUGGCCCGAAGUUUGGCUG
# modifications: 2'-F G; 2'-OMe A,C,U; 5' C6NH2; 3' idT
# B22: Aptamer 59 (ssRNA)
# RNA: CCGACUUGCGGGUAUUGGCGUUGGCCCGAAGUUUGUCGG
# modifications: 2'-F G; 2'-OMe A,C,U; 5' C6NH2; 3' idT
# B23: Aptamer 33 (ssRNA)
# RNA: CAGCCAUGCAAGUAUUGGCUUAGGCUUGAAGUUCGGCUG
# modifications: 2'-F G; 2'-OMe A,C,U; 5' C6NH2; 3' idT
# B24: Aptamer 69 (ssRNA)
# RNA: CCGACUUGCCAGUAUUGGCGCAGGCUGGAAGUUUGUCGG
# modifications: 2'-F G; 2'-OMe A,C,U; 5' C6NH2; 3' idT
# B25: Aptamer 71 (ssRNA)
# RNA: CCGACUUGCCAGUAUUGGCGAAGGCUGGAAGUUUGUCGG
# modifications: 2'-F G; 2'-OMe A,C,U; 5' C6NH2; 3' idT
# B26: Aptamer 88 (ssRNA)
# RNA: CCGACUUGCCAGUAUUGGCUUAGGCUGGAAGUUUGUCGG
# modifications: 2'-F G; 2'-OMe A,C,U; 5' C6NH2; 3' idT
# B27: Aptamer 66 (ssRNA)
# RNA: CCGACUUGCCAGUAUUGGCCUAGGCUGGAAGUUUGUCGG
# modifications: 2'-F G; 2'-OMe A,C,U; 5' C6NH2; 3' idT
# B28: Aptamer 36 (ssRNA)
# RNA: CCGACUUGCCAGUGUUGGCUUUGGCUGGAAGUUUGUCGG
# modifications: 2'-F G; 2'-OMe A,C,U; 5' C6NH2; 3' idT
# B29: Aptamer 62 (ssRNA)
# RNA: CCGACUUGCCAGUAUAGGCUCAGGCUGGAAGUUUGUCGG
# modifications: 2'-F G; 2'-OMe A,C,U; 5' C6NH2; 3' idT
# B30: Aptamer 64 (ssRNA)
# RNA: CCGACUUGCCAGUAUUAGCUUAGGCUGGAAGUUUGUCGG
# modifications: 2'-F G; 2'-OMe A,C,U; 5' C6NH2; 3' idT
# B31: Aptamer 72 (ssRNA)
# RNA: CCGACUUGCCAGUAUUGGCUCUGGCUGGAAGUUUGUCGG
# modifications: 2'-F G; 2'-OMe A,C,U; 5' C6NH2; 3' idT
# B32: Aptamer 40 (ssRNA)
# RNA: CGCAUUGCUAGUAUUGGCUUAGGCUAGAAGUGUUGCG
# modifications: 2'-F G; 2'-OMe A,C,U; 5' C6NH2; 3' idT
# B33: Aptamer 55 (ssRNA)
# RNA: CGACUUGCGGGUAUUGGCGAUGGCCCGAAGUUUGUCG
# modifications: 2'-F G; 2'-OMe A,C,U; 5' C6NH2; 3' idT
# B34: Aptamer 39 (ssRNA)
# RNA: CCGACUUGCCAGUAUUGGCGAUGGCUGGAAGUUUGUCGG
# modifications: 2'-F G; 2'-OMe A,C,U; 5' C6NH2; 3' idT
# B35: Aptamer 68 (ssRNA)
# RNA: CCGACUUGCCAGUAUUGGCGCUGGCUGGAAGUUUGUCGG
# modifications: 2'-F G; 2'-OMe A,C,U; 5' C6NH2; 3' idT
# B36: Aptamer 54 (ssRNA)
# RNA: CCGACUUGCGGGUAUUGGCGAUGGCCCGAAGUUUGUCGG
# modifications: 2'-F G; 2'-OMe A,C,U; 5' C6NH2; 3' idT
# B37: Aptamer 35 (ssRNA)
# RNA: CCGCCUUGCGAGUAAUGGCGUAGGCUCGAAGUUGGGCGG
# modifications: 2'-F G; 2'-OMe A,C,U; 5' C6NH2; 3' idT
# Biological target: T1, complement Factor D (fD) in C1q-depleted human serum (Homo sapiens, UniProt P00746 SEQ:1-228)
# Experiment: inhibition; hemolysis
# Conditions: protein: extract; tags: endogenous fD, about 9.6 nM in 10% serum; hairpin
# Procedure: (§1) In V-bottom 96-well plates the following reagents were added to a final volume of 250 μL: appropriate volume of 1× Veronal buffer with 0.1% gelatin, 100 μL aptamer, 30 μL of C1q-depleted human serum and 20 μl RBCs. This mixture was incubated for 25 minutes at room temperature, then the reaction was stopped by the addition of 5 μL of 500 mM EDTA. The plate was centrifuged for 5 minutes at 500×g at room temperature, then 100 μL of supernatant was removed and the extent of RBC lysis was determined by measuring absorbance at 405 nm.
# The following nine aptamers with 2′OMe-Gs in Stem 1 (S1) were synthesized: Aptamer 76 (2′OMe-Gs substituted in Stem 1 (S1) of Aptamer 39), Aptamer 116 (Aptamer comprising loop 2 (L2) of Aptamer 39 and Stem 1 (51) of Aptamer 15 with 2′OMe-Gs in Stem 1 (S1)), Aptamer 102 (4 base pair 2′OMe-G Stem 1 (S1) variant of Aptamer 76), Aptamer 104 (4 base pair 2′OMe-G Stem 1 (S1) variant of Aptamer 74), Aptamer 106 (Aptamer 88 with 2′OMe-G Stem 1 (S1)), Aptamer 107 (4 base pair 2′OMe-G Stem 1 (S1) variant of Aptamer 88), Aptamer 108 (3 base pair 2′OMe-G Stem 1 (S1) variant of Aptamer 92), Aptamer 109 (4 base pair 2′OMe-G Stem 1 (S1) variant of Aptamer 98) and, Aptamer 99 (4 base pair 2′OMe-G Stem 1 (S1) variant of Aptamer 60).
# T1 sequence (P00746 26-253): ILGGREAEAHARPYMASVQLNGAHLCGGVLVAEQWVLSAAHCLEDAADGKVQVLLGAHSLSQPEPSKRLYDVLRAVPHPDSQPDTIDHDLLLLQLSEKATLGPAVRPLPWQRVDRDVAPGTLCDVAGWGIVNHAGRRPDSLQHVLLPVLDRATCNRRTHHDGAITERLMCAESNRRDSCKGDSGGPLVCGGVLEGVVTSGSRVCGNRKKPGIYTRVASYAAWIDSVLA
row,Binder,IC50 [nM]
1,B1,< 10
2,B2,< 10
3,B3,< 10
4,B4,< 10
5,B5,< 10
6,B6,< 10

# Biological target: T2, complement Factor D (fD) (Homo sapiens, UniProt P00746 SEQ:1-228)
# Experiment: competition; signal reduced about 75-90% by 100 nM AFD anti-fD Fab; SB1T, 37 C
# Conditions: tags: His-tagged, immobilized on magnetic His capture beads; label: Dy650 via hybridized 2'-OMe reverse oligo
# Procedure: Competition binding assays were performed using a clone of an anti-fD Fab with an amino acid sequence of heavy chain variable region according to SEQ ID NO:7 and light chain variable region according to SEQ ID NO:8 (hereinafter, “AFD”) to further assess binding. For the competition assays, beads labelled with fD were first incubated with 50 nM round or individual aptamer, in 50 μl SB1T (with ssDNA and BSA), for 30 minutes at 37° C. The beads were then washed with SB1T to remove unbound aptamers and incubated with or without 100 nM AFD for 30 minutes at 37° C. Following incubation, the beads were washed three times with SB1T, and assayed by flow cytometry (FIG. 12). […] In cases where aptamers are sufficiently outcompeted by AFD as described above, such aptamers were presumed to be binding to the exosite or the self-inhibitory loop of fD.
# T2 sequence (P00746 26-253): as above
row,Binder,binding result
1,B7,binds
2,B8,binds
3,B9,binds

# Biological target: T1, complement Factor D (fD) in …
# Experiment: inhibition; hemolysis, sd 0.8
# Conditions: protein: extract; tags: endogenous fD, about 9.6 nM in 10% serum; hairpin
# Procedure: as §1
# The potency of the PEG-aptamers P01, P04, P06, P07 and P08 compared to their non-pegylated counterparts was determined in the alternative complement-dependent hemolysis assay as described in Example 2.
row,Binder,IC50 [nM]
1,B10,3.2

# Biological target: T2, complement Factor D (fD)
# Experiment: SPR
# Conditions: tags: amine-coupled to dextran chip for SPR; free in esterase assay; hairpin
# Procedure: The binding affinity of aptamers for fD was determined by surface plasmon resonance (SPR) on a Reichert4 SPR System, where either aptamer or fD was immobilized as ligand on a solid surface and the interactant analyte was flowed in solution over the immobilized ligand (Table 20).
row,Binder,Kd [nM]
1,B1,1.07
2,B2,3.9
3,B3,4.2
4,B4,3.34
5,B6,2.7

# Biological target: T2, complement Factor D (fD)
# Experiment: flow; bead-based direct binding
# Conditions: tags: His-tagged recombinant, bead-immobilized via His capture beads (flow) or anti-His Eu (TR-FRET); hairpin
row,Binder,Kd [nM]
1,B11,45
2,B12,4.5
3,B13,11

# Biological target: T1, complement Factor D (fD) in …
# Experiment: inhibition; hemolysis
# Conditions: protein: extract; tags: endogenous fD, about 9.6 nM in 10% serum; hairpin
# Remark: another data set of the same source
# Procedure: as §1
# To this end, series of aptamer variants were designed based on the loop L2 sequences for Aptamers 15, 39, and 38 in which the sequence of S1 and S2 were altered while maintaining pairing (Table 17). These included Aptamers 90, and 94-98. Additionally, a truncate of Aptamer 38 (Aptamer 91) was designed with 3 base pairs in stem S1. The stem elements (S1 and S2) from this molecule were also used to generate Aptamer 92, which contained L2 from Aptamer 39.
row,Binder,IC50 [nM]
1,B14,< 10
2,B15,< 10
3,B16,~10
4,B17,~100

# Biological target: T1, complement Factor D (fD) in …
# Experiment: inhibition; hemolysis
# Conditions: protein: extract; tags: endogenous fD, about 9.6 nM in 10% serum; hairpin
# Remark: another data set of the same source
row,Binder,IC50 [nM]
1,B18,< 10
2,B19,6.9
3,B20,5.5
4,B21,~10
5,B22,< 10
6,B23,11
7,B24,< 10
8,B25,< 10
9,B26,< 10
10,B27,~100
11,B28,8.2
12,B29,~10
13,B30,~100
14,B31,~100
15,B32,5.8
16,B33,~10
17,B34,3.1
18,B35,~10
19,B36,~10
20,B37,5.4
